Assay results published in the nanobody polyreactivity screen of Harvey et al. (2022).

Test: yeast display, Sf9 membrane polyspecificity reagent, FACS + sequencing; frameworks hold sequencing errors
Method in brief: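 Synthetic nanobody libraries on Saccharomyces cerevisiae BJ5465 were galactose-induced for 36–48 hours, stained 1 hour at 4 °C with 10% biotinylated, detergent-solubilized Sf9 membrane reagent and enriched on streptavidin microbeads. FACS then separated cells into low and high (top ~1%) gates by anti-HA (expression) and streptavidin (reagent binding) fluorescence. Genes were colony-PCR amplified, MiSeq 2 × 250 sequenced and CDR-length filtered. A clone's polyreactivity label is that of its gate of origin.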

With “QVQLVESGGGLVQAGGSLRLSCAASGRIFVANAMGWYRQAPGKERELVAVISGSGGRTYYADSVKGRFTISRDNAKNTVYLQMNSLKPEDTAVYYCAAQKWQQGITAYEYWGQGTQVTVSS” the “polyreactivity (PSR sort gate)” value was “high polyreactivity”.
For “QAQLQESGGSLVQAGGGLRLSCAASGYISVGSVMGWYRQAPSKERELVASIDQGANTNYADSVKGRFTISRDNAKNNVYLQMNSLKPEDSAVYYCATETTYILNYWGQGTQVTVSS”, the “polyreactivity (PSR sort gate)” value was “low polyreactivity”.
For “QFQLVESRGGLDQAVGSLRLSCAASGFIFAGYVMGLYRQAPGQERELVAGISNSGDNTHYADSVKGRFTISRDNAKNTDYLQMNSLKPEDTAVYYCAAVEQHLAGDDFYSYYYWGQGTQVTLSS”, the “polyreactivity (PSR sort gate)” value was “low polyreactivity”.
With “QVHLVESGGGLVQAGGSLRLSCAASGFTFPIYAIGWYRQAPGKERELVAAITTRGGSTYYADSVKGRFTISRDNAKNTVYLQMNSLKPEDTAVYYCNNRGRRTDYDYWGQGTQVTVSS” the “polyreactivity (PSR sort gate)” value was “high polyreactivity”.
With “QVQLVESGGGLVQAGGSLRLSCAASGSIFGRNAMGWYRQAPGKERELVAAINSGGSTNYADSVKGRFTISRDNAKNTVYLQMNSLKPEDTAVYYCAARTYSSGRYYGYVAFYYWGQGTQVTVSS” the “polyreactivity (PSR sort gate)” value was “high polyreactivity”.
With “QVQLVESGGGLVQAGGSLRLSCAASGLTLAPNAMGWYRQAPGKERELVAAITRSGGDTYYADSVKGRFTISRDNAKNTVYLQMNSLKPEDTAVYYCAADYWFRYGTYEYWGQGTQVTVSS” the “polyreactivity (PSR sort gate)” value was “high polyreactivity”.
For “QVQLVESGGGLVQAGGSLPLSCAASGRIYGSYAMGWYRQAPGKERELVADISRRGGGTYYADSVKGRFTISRDNAKNTVYLQMNSLKPEDTAFYYCAKDWYGRYYYWGQGTQVTVSS”, the “polyreactivity (PSR sort gate)” value was “high polyreactivity”.
With “QVQLVESGGGLVEAGGSLRLSCAASGRIFLYKAMGWYRQAPVKERELVAAITASGGTTYYADSVKGRFTLSRDNAKNTVYLQMNSLKPEDTAVYYCNAYSYSGERYYWGQGTQVTVSS” the “polyreactivity (PSR sort gate)” value was “high polyreactivity”.
With “QVQLVESGGGLVQAGGSLRLSCAASGFTFKQYGMGWYRQAPGKERELVASISYRGGSTHYADSVKGRFTISRDNAKKTVYLQMNSLKPEDTAVYYCAARVTSRTSIKGDYWGQGTQVTVSS” the “polyreactivity (PSR sort gate)” value was “low polyreactivity”.
In the case of “QVQLVESGGGLVQAGGSLRLSCAASGFTFAYYAMGWYRQAPGKERELVATITSGGRTYYADSVKGRFTISSDNAKNTVYLQMNSLKPEDTAVYYCAATGRSGVLSSYYYWGQGTQVTVSS”, the “polyreactivity (PSR sort gate)” value is reported as “high polyreactivity”.
In the case of “QVLLVESGGGLGQAGGSLRLSCAASGAIFVGYAMGWYRQAPGKEREMVAAISKSGGSTYYADSVKGRFTISRDNAKNTVYLQMKSLKPDDTAVYYCAAYPVRLVYSQHRYLYDYWGQGTQVTVSS”, the “polyreactivity (PSR sort gate)” value is reported as “high polyreactivity”.
For “QVQLVESGGGLVQAGGSLRLSCAASGRIFAFNAMGWYRQAPGTESELVAAINWSGTTTYYADSVKGRFTISRDNAKNTVYLQMNSLKPEDTAVYYCAADVTFRGYAKYYYWGQGTQVTVSS”, the “polyreactivity (PSR sort gate)” value was “low polyreactivity”.
With “QVQLVESGGGLVQAGGSLRLSCAASGSTYYYNAMGSYRQAPGKDRELVARISRSGGSTYADSVKGRFTISRDNAKNTVYLQMNSLKPEDTAVYYCNADAYGTPEFTSYAVRYDYWGQGTQVTVSS” the “polyreactivity (PSR sort gate)” value was “low polyreactivity”.
For “QVQLEESGGVLVQAGGSLRLSCAASGRTFGHYAMGWYRPAPGKERELVAAITRDDGTNYADSVKGRFTISGDNAKNTVYLQMNRLKPEDTAVYYCNADVWLRRVYDYWGQGTQVTVSS”, the “polyreactivity (PSR sort gate)” value was “low polyreactivity”.
With “QVQLVESGGGLVQAVGSLRLSCAASGSIFRRNVMGWYRPAPGKERELVATLTVGGSTYYADSVKGRFTISRDNAKNTVYLQMNSLIPEDTAVYYCAAYSPYLRSWYDYWGQGTQGTVSS” the “polyreactivity (PSR sort gate)” value was “high polyreactivity”.
For “QVQLVESGGGLVQAGGSLRLSCAASGSIFTKYAMGWYRQAPGKERELVAAISASGGSTYYADSVKGRFTISRDNAKNTVYLQMNSLKPEDTAVYYCAARYWVREDYWGQGTQVTVSS”, the “polyreactivity (PSR sort gate)” value was “high polyreactivity”.
In the case of “QVQLVESGGGLVQAGGSLRLSCAASGSIFAGYAMGWYRQAPGKERELVAAITSSGGSTYYADSVKGRFTISRDNAKNTVYLQMTSLKPEDTAVYYCAKDKLILYRVGSDYWGQGTQVTVSS”, the “polyreactivity (PSR sort gate)” value is reported as “low polyreactivity”.
In the case of “QVQLVESGGGLDQAGGSLRLSCAASGSIFAPNAMGWYRQAPGKERELVAAITSSGGRTYYADSVKGRFTISRDNAKNTVYLQMNSLKPEDTAVYYCNACYYVRRDYDYWGQGTQVTVSS”, the “polyreactivity (PSR sort gate)” value is reported as “low polyreactivity”.
In the case of “QVQLVESGGGLVQAGGSLRLSCAASGSTFVGYAMGWYRQAPGKERELVAAISSSGSTNYADSVKGRFTISRDNAKNTVYLQMNSLKPEDTAVYYCAALYSYFWLIIDYGYWGQGTQVTVSS”, the “polyreactivity (PSR sort gate)” value is reported as “low polyreactivity”.
For “QVQLVESGGGLVQAGGSLRLSSADSGSIFVYNDMGWYRQAPGKERELVARIDWSGDRTYADSVKGRFTISRDNAKNTVYLQMNSLKPEDTAVYYCNADEWRWDEIIPYAVDYCGQGTQVTVSS”, the “polyreactivity (PSR sort gate)” value was “low polyreactivity”.
With “QVQLVESGGGLVQAGGSLRLSCAASGSIFAKYAMGWYRQAPGKERELVAAITSSGDSTNYADSVKGRFTISRDNAKNTVYLQMNSLKPEDTAVYYCAADDQYGYVYYAFWGYDYWGQGTQVTVSS” the “polyreactivity (PSR sort gate)” value was “low polyreactivity”.
With “QVQLVESGGGLVQAGGSLRLSFAPSGRTIDPNAMGWYRQAPGKERELVAAITRTGVRKYYADSVKGRFTISRDNAKNTVYLQMNSLKPEDTAVYYCAASYSGRQDRYPHYDYWGQGTQVTVSS” the “polyreactivity (PSR sort gate)” value was “low polyreactivity”.
In the case of “QVQLVESGGGLVQAGGSLRLSCAASGSISYSNAMGWYRQAPGKERELVAAISWSTGRTYYADSVKGRFTISRDNAKNTVYLQMNSLKPEDTAVYYCATRLYPGGPYDYWGQGTQVTVSS”, the “polyreactivity (PSR sort gate)” value is reported as “high polyreactivity”.
For “QVQLVESGGGLVQAGGSLRLSCAASGFTFYRNAMGWYRQAPGKEREMVAAITWSGTSTYYADSVKGRFTISRDNAKNTVYFQMNSLKPEDTAVYFCNTVGYRGRSNSRFYYWGQGTQVTVSS”, the “polyreactivity (PSR sort gate)” value was “high polyreactivity”.
With “QVQLVESGGGLVQAGGSLRISCADSGSIFRRYAMGWYRQAPGKERELVAAISIGGGSTYYADSVKGRFTISRDNAKNTVYLLMTSLKPEDTAVYYCNKVEYDGAYDYWGQGTQVTVSS” the “polyreactivity (PSR sort gate)” value was “low polyreactivity”.
With “QVQLVESGGGLVQAGGSLRLSCAASGRTCDRNTMGWYRQAPGKERELVAAISGSSARTYYADSVKGRFTISRDNAKNTVYLQMNSLKPEDTAVYYCNAEYGARAQHYEGDSWGQGTQVTVSS” the “polyreactivity (PSR sort gate)” value was “high polyreactivity”.
With “QVQLVESGGGLVHAGGSLRLSCAASGYSSSQNAMVWYRQEPGKERELLARITTDGTSTYYADSVKGRFTISRDNAKNTVYLHMNSLKPEDTAVYYCNARYPAYVVRSWYPYAYYYWGQGTQVTVSS” the “polyreactivity (PSR sort gate)” value was “low polyreactivity”.
In the case of “QVQLVESVGGLVQAGGSLRLSCAASGVIFYFYTMGWSRQAPGKERELVAGITWSGDSTYYADSVKGRFTISRDNAKNTVYLQMNSLTPEDTAVYYCAAGFDFGTRVSKGYDYWGHGTQVTVSS”, the “polyreactivity (PSR sort gate)” value is reported as “low polyreactivity”.
For “QVQLVESGGGLVQAGGSLRLSCAASGFTFKSYAMGWYRQAPGKERELVAAISRGTSTKYADSVKGRFTISRDNAKNTVYLQMNSLKPEDTAVYYCAALFPTSDLRLRYYRYDYWGQGTQVTVSS”, the “polyreactivity (PSR sort gate)” value was “low polyreactivity”.
With “QVQLVESGGGLVQAGGSLRLSCAASGYTFSYNAMGWYRQAPGKERELVAAISRSGGSTYYADSVKGRFTISRDNAKNTVYLQMNSLKPEDTAVYYCAAKRVSVPYGYWGQGTQVTVSS” the “polyreactivity (PSR sort gate)” value was “high polyreactivity”.
For “QVQLVESGGGLVQAGGSLRLSCAASGSIFGYYAMGWYRQAPGKERELVAAISSGGSTKYADSVKGRFTISRDNAKNTVYLQMNSLKPEDTAVYYFNAAYSQIRFNYRGQGTQVTVSS”, the “polyreactivity (PSR sort gate)” value was “high polyreactivity”.
With “QVQLVESGGGLVQAGGSLRLSCAASGRIFVYNAMGWYRQAPGKERELVAAISGGGSTYYADSVKGRFTISRDNAKNTVYLQMNSLKPEDTAVYYCNTVFSGYARGWFQPAYNYWGQGTQVTVSS” the “polyreactivity (PSR sort gate)” value was “high polyreactivity”.
For “QDQLVESGGVLVQARGSLRLSCAASASTLPGYAMGWYRQAPGKERELVAAISSSGTSTYYADSVKGRFTISRDNAKNTVYLQMNSLKPEDTAVYYCAAEGYRWVTAYYDYDEDYWGQGTQVTVSS”, the “polyreactivity (PSR sort gate)” value was “low polyreactivity”.
With “QVQLVESGGGLVQAGGSLRLSCAASGSISVPNAMGWYRQAPGKERELVAGITSGDSTHYADSVKGRFSISRDNAKNTVYIQMISLKPEDTAVYYCAAKVPEPPSLDESDYWGQGTQVTVSA” the “polyreactivity (PSR sort gate)” value was “low polyreactivity”.
With “QVQLVESGGGLVQAGGSLRLSCAPSGIIFYAYAMGWYRQAPGKEREFVAAINNSGGRTYYADSVKGRFTISRDNAKNTVYLQMNSLKPEDTAVYYCAVYSYYRRTYRREMDYWGQGTQVTVSS” the “polyreactivity (PSR sort gate)” value was “high polyreactivity”.
For “QVQLVESGGGLVQAGGRLRLSCAASGNTFGINAMGWYRQAPGKEREFVAAITFGGGRTYYADSVKGRFTISRDNAKNTVYFQMNSLKPEDTAVYFCAARAPVVTYTWSSPRWWFDYWGQGTQVTVSS”, the “polyreactivity (PSR sort gate)” value was “high polyreactivity”.
With “QVQLVESGGGLVQAGGSLRLSCAASGRTFPAYAMGWYRQAPGKERELVAAISSSGSRTYYADSVKGRFTISRDNAKNTVYLQMNSLKPEDTAVYYCAARGGRRQKVNRDDYWGQGTQVTVSS” the “polyreactivity (PSR sort gate)” value was “high polyreactivity”.
For “QVQLVESGGGLVQAGGSLRLSCAASGSSFAKYAMGWYRQAPGKERELVATISWSGTSTYYADSVKGRFTISRDNAKNTVYLQMNSLKPEDTAVYYCDADTECVGVNHIYDYWGQGNQVTVSS”, the “polyreactivity (PSR sort gate)” value was “low polyreactivity”.
With “QVQLVESGGGLVQAGGSLRISCAASGSTFLINAMGWYRQAPGKERELVAAIRYSGGRTYYADSVKGRFTISRDNAKNTVYLQMNSLKPEDTAVYYCNARPYRSQIGVHYDYWGQGTQVTVSS” the “polyreactivity (PSR sort gate)” value was “high polyreactivity”.
With “QVQLLESGGGLVQAGGTLRLSCAASGSTFAKYGMGWYRQAPGKERELVAAISRSGGRTYYADSVKGRFTISRDNAKNTVYLQMNSLKPEDTAVYYCATDGIRLTRHRDYDYWGQGTQVTVSS” the “polyreactivity (PSR sort gate)” value was “low polyreactivity”.
With “QVQLVESGGGLVQAGGSLRLSCAASGFTLGFYAMGWYIQAPGKERELVAAINWRGGSTYYADSVKGRFTISRDNAKNTVYLQMNSLKPEDTAVYYCNAGFNTGGYGYWGQGTQVTVSS” the “polyreactivity (PSR sort gate)” value was “high polyreactivity”.
In the case of “QVQLVESGGGLVQAGGSLRLSCAASGSTFTDYAMGWYRQAPGKERELVAAITDSGGRTYYADSVKGRFTISRDNAKNTVYLQMNSLKPEDTAVYYCATEDDRWYYWGQGTQVTVSS”, the “polyreactivity (PSR sort gate)” value is reported as “high polyreactivity”.
For “QVQHVESGGGLVQAGGSLRLSCAASGFTFARYAMGWYRHAPGKERELVASISSSGDRTNYADSVKGRFTISRDNAKITVYLQMYSLKPEDTAVYYCNADFGYGWYLRYDYWGQGTQVTVSS”, the “polyreactivity (PSR sort gate)” value was “high polyreactivity”.
